In the DeepSol protein solubility set:

Assay: soluble on expression in E. coli; label from the status in PepcDB or PDB records

MKIALIGATGMAGSRILEELVSRGHYVKALARDTHKVADTERVMAVDIDLNDHDALVEALRGQDAVISAVRFHGLDANALFNAIHDSKVKRYLVVGGAGSLHVPHQNTRVLDSEDFPEAYKPEAEAAAHFLDKLKEKDDLDWTFISPSAEFGPGKRTGEFRLGKDELLVGEEGSKISAEDFAVALADELEHNNHIQQRFTVGYLEHHHHHH
soluble on expression in E. coli: not soluble

MGSDKIHHHHHHARRNILRQTWMSKANSEIVANGRMKPLFLVGLTPGEYKMKKMVMQEAKLYGDIIVVDMNDNYEELTYKSLAILLYGVSKAPRYQMIGKIDEDVMFFPDKLTELYDQGFIDATPLRIYGLKMQSGANIFRDKTHRWYVPESSYSCSKFPEYVSGMLYMVTWEAAQQIIKSTKYRDFIQVEDVFLTGILAEDLGISVKNLP
soluble on expression in E. coli: not soluble

MNMKPESKEAPINIRAKASQRDLIDMAANLVAKSRTDFMLDAACREAQDILLDQRLFILDDEQYDAFLAALDAPITAERQAKINALMNRKSPWE
soluble on expression in E. coli: soluble

MKKAVVVFSGGQDSTTCLVQALKEFDEVHAITFDYGQRHKLEIEVAQQLAKQLGVTAHKVMDVSLLNELAISSLTRDDIPVSHELQANGLPNSFVPGRNILFLTLAGIYAYQIGATTVITGVCETDFSGYPDCRDEFVQAMNQALAKGMDLPLMIRTPLMWLNKAETWALADQLGALDLVRHQTLTCYNGLIGDGCGECPACGLRQAGLKAYLDNRDLIMSALKSKQSAAH
soluble on expression in E. coli: not soluble

MKYQQLENLESGWKWKYLVKKHREGELITRYVEASAAQEAVNLLLALENEPVRVNVWIDRHMNPALLNRMKQTIRARRKRHFNAEHQHTRKKSIDLEFMVWQRLAGLAQRRGKTLSETIVQLIEDAEHKEKYATQMTTLKQDLQALLGKK
soluble on expression in E. coli: not soluble

GMHTDVNALFAALWQDYIKMTPSAAKIHQLLGHGAPIINDHIALRTFNIAKVNLSVLAKHFTSIGYVDSGDYKFEQKKLIAKHFEHPDPKQPKVFISELLVEEFSPEVQKSIHGLIDQVDIAATTADNFIYSGRHWDVDKATYQALLAESEYAAWVAALGYRANHFTVSINDLPEFERIEDVNQALKQAGFVLNSSGGEVKGSPEVLLEQSSTMADKVVVNFTDGDVEIPSCFYEFARRYPMANGQLYTGFVAASADKIFESTNAMM
soluble on expression in E. coli: soluble

MQEKIYQVAVGLIPGVGAATTKTLISYCGCAEQIFKTPKGKLKNIPGIGAVTVDNIYSASVLHEAESIVERAQKLDTQLLFYTDPDYPNRLKQIPDAPTLLYYKGSSALNPPKSIAIVGTRKATEYGRSVVRKLLEEIASYKPLVVSGLAYGIDIQAHRDALELGLETIGVMANGTNIIYPSVHKNTALKMLEQGGLLSEYTFDSIAEPMRFPARNRIIAGMTDATIVIEATQSGGALITAEIADSYDREVLAVPGRITDMASEGCNNLIKQNKAHALTSAADLIELLNWDITPSQQAHKHIILADLEEDELMIYAVLTDNEGIHIDELSWKSQLSMQKISSVLLEMEFKGIVKALPGKKFSLR
soluble on expression in E. coli: not soluble

MGSDKIHHHHHHMYSCYNNFVKYALTMQFDIEVDVMYEVKLDAFNGPLDLLLHLIQKYEIDIYDIPMKALTEQYMQYVHAMNQLEINVASEYLVMASELLMIKSKLLLPQTSIEEDIEEDPREDLVGRLIEYQNYKEYTEILNTMKEERDLYFTKHPTDLTHLETNESWDPNQTIDLTELIVAYQRVKNRVELNTPKSVEIKKETFTIQQATAQVTERLKQHESFNFFSLFTFHEPVEQVVTHFLAILEMSKSGIVNIKQTKQFDDIDIIRGVNYSIG
soluble on expression in E. coli: not soluble

MAHHHHHHMKAFFIGKREYRRVLSLQETIFNAKIARQVSVRRGASKLPLLPDVVILVEHSTPVYTIGRRDTTHGLPPHCSIDVVKTRRGGGITYHGPGQLTMYPIANIQLLWKDCTAEKPRSPIEWFSWALEEAMIQTAAMYHIPTHRFKTGVWADQYKDIPAQKLGAVGLQLGSWVSMHGAGLNVASDLHFFDDIIMCELPDRRATSLSNEMQHRGVAESPPLVQATAPVLLQKFIESLHQQPSCAAPQLVDLSADADWHERVIDTAGISTP
soluble on expression in E. coli: not soluble

MSLARVGVVCHVHPDADTIGAGLALALVLDGCGKRVEVSFAAPATLPESLRSLPGCHLLVRPEVMRRDVDLVVTVDIPSVDRLGALGDLTDSGRELLVIDHHASNDLFGTANFIDPSADSTTTMVAEILDAWGKPIDPRVAHCIYAGLATDTGSFRWASVRGYRLAARLVEIGVDNATVSRTLMDSHPFTWLPLLSRVLGSAQLVSEAVGGRGLVYVVVDNREWVAARSEEVESIVDIVRTTQQAEVAAVFKEVEPHRWSVSMRAKTVNLAAVASGFGGGGHRLAAGYTTTGSIDDAVASLRAALGEGHHHHHH
soluble on expression in E. coli: not soluble

MSSTRTASGRTSGRNGTWRNWGGNVSARPAREVTPASVDELADAVRRAAEDGQRVKAVGTGHSFTSIAATDGVLIRPQLLTGIRSIDRDAMTVTVEAGTPLKRLNMALAREGLSLTNMGDIMEQTVSGATSTGTHGTGRDSASIAAQIRGLELVTADGSVLTCSADENPEVFAAARIGLGALGVVTAITFAVEPVFLLTAREEPMPFDRVLADFDALWSENEHFEFYWFPHTNSTNTKRNNRSAGPERPVGRFQGWLDDEFLSNGLFQAVNWVGRAAPATIPSIARISSRALSARTYTDTPYKVFTSPRRVRFVEMEYAVPREAVVEVLRELRTMVDRSRLRISFPVEVRTAPADDITLSTASARDSAYIAVHMFRGTPYQAYFTAAERIFTAHEGRPHWGKVHTRDAGYFSRVYPRFGEFTALRDRLDPDRLFQNDYLRRVLGPLEHHHHHH
soluble on expression in E. coli: soluble

MSLAPIAQAQHELSISRLIDAPPAKVFRAWTEPQWLMQWWGPHGMTTPECEMQLWAGGLFRTLMRAPDGCEYPNQGVFLEIAAPRRLVFTDAFGPGWVPSDKAFMTAVISFDEEQGKTRYTARAWHWNATDCRAHEEMGFHQGWGESLDRLVEVVTQRMPDLEHHHHHH
soluble on expression in E. coli: soluble

MGSDKIHHHHHHMRYFSTDSPEVKTIVAQDSRLFQFIEIAGEVQLPTKPNPFQSLVSSIVEQQLSIKAASAIYGRVEQLVGGALEKPEQLYRVSDEALRQAGVSKRKIEYIRHVCEHVESGRLDFTELEGAEATTVIEKLTAIKGIGQWTAEMFMMFSLGRLDVLSVGDVGLQRGAKWLYGNGEGDGKKLLIYHGKAWAPYETVACLYLWKAAGTFAEEYRSLEELLHHGNQC
soluble on expression in E. coli: soluble

MAHKGTESKEQIWPYKITIGICAMNRKATSKPMRAIMKKIIDFYGQWVDSFIFPEQVIINEPVENWPLCHCLVSFHSTEFPLEKAIAYVKLRNPYVINNLDRQYDLLDRRTVFKILSDNGIEHPRHGYVIRGRPNEPDTELVEHPDHIEVNGEVFNKPFVEKPISSEDHNVYIYYPSSVGGGSQRLFRKINNRSSWYSPKSEVRKEGSYIYEEFIPADGTDVKVYAVGPFYAHAEARKAPGLDGKVERDSDGKEVRYPVILSNKEKQIAKKIVLAFGQTVCGFDLLRANGKSYVCDVNGFSFVKTSTKYYEDTAKILGNQIVRHYAKSKNWRVPSDMPQPPILDLGLGDDPPMITTPSGKLAELRCVVAVIRHGDRTPKQKMKLIVTDQRFFALFEKYDGYKKHEIKMKKPNQLMEVLELARALVIEKQRDRHQILEKLREGTGEEEIHKSEHDLEVCEEEMKKWEQMRTVLEMYGHFSGINRKVQMKYLKERETKTSDEELRREGPALLLILKWGGELTTAGNMQAEALGRLFRTLYPGIRRTDGKSSPEDTQGLGFLRLHSTYRHDLKIYASDEGRVQTTAAAFAKGLLALEGELTPILMQMVKSANTDGLLDDDCQARLYQTELKRYLHKALQADRDFTPQDYLELNPNGLRAITAAMEFIKNPRKMCHEIAGYVEKMCGVIVEYSQTRPTGSTLYLQESMDLAQRRWNKELREFRRKNKHGEVEFDISKIPDIYDNIKYDMEHNPDLCINNEVEFERMYVCVKNMADIVVPQEYGIKTENKMVIAQRVCTPLLRKIRNDLHRCLENKESEETQTRLDPRASQGIATPFRHVRTRLYFTSESHIHTLMNLIRYGNLCSVDDKKWQRAMNFLSGVTEFNYMTQVVLMVYEDSRKENDEADTGPRFHIEILFSPGLYPCFLTEKERIYETRFNLSTNPKPATSSRSSGRESRDTNDSASSSTEGRRPSIEKVVTVVTPTQLSTPSVTNDDLSISSNAESTAAESTGLVNTTTKTHNDSEDDLNDVESVNLVALDELNNTTKASQRGSFHVTEPIQIDEKTRRYFPYRFKHHTAQLLTGMSGGGVHMQNRLISTDVLTGKFGDHDNKKNSRKDFGAGTAVLSTAVIARSSSAPRLMTYESEDFSVGEIKRFWPPLRSLETLHDSINLSQFDGFLERLIKGALTPLPSPPKTPLPSALSCDAINKTPTQDEVEKVIGKLAPTSSTD
soluble on expression in E. coli: not soluble

MNIVAKPTSFISGAVDGVVDLKNTYTENQHLKERLEELAQLESEVADLKKENKDLKESLDITDSIRDYDPLNASVISRNPTNWNDQVEIDKGSSDGVKPDMAVTTPSGLIGKVTTTGAKSATVELLTSSDVKNRVSAKVQGKENAFGIINGYDSDTKLLELKQLPYDMKFKKGQKVVTSGLGGKFPAGIFIGTIEKVETDKMGLSQTAFIKPGADMYDLNHVTVLKRSAEAGTTDDDTTSSDTTGGQGSHHHHHH
soluble on expression in E. coli: soluble

MNSIHGHYHIQLSNYSAGENLQSATLTEGVIGAHRVKVETALSHSNLQKKLSATIKHNQSGRSMLDRKLTSDGKANQRSSFTFSMIMYRMIHFVLSTRVPAVRESVANYGGNINFKFAQTKGAFLHKIIKHSDTASGVCEALCAHWIRSHAQGQSLFDQLYVGGRKGKFQIDTLYSIKQLQIDGCKADVDQDEVTLDWFKKNGISERMIERHCLLRPVDVTGTTESEGLDQLLNAILDTHGIGYGYKKIHLSGQMSAHAIAAYVNEKSGVTFFDPNFGEFHFSDKEKFRKWFTNSFWGNSMYHYPLGVGQRFRVLTFDSKEV
soluble on expression in E. coli: not soluble

MGSDKIHHHHHHMKKMKIGTQNQAFFPENILEKFRYIKEMGFDGFEIDGKLLVNNIEEVKAAIKETGLPVTTACGGYDGWIGDFIEERRLNGLKQIERILEALAEVGGKGIVVPAAWGMFTFRLPPMTSPRSLDGDRKMVSDSLRVLEQVAARTGTVVYLEPLNRYQDHMINTLADARRYIVENDLKHVQIIGDFYHMNIEEDNLAQALHDNRDLLGHVHIADNHRYQPGSGTLDFHALFEQLRADNYQGYVVYEGRIRAEDPAQAYRDSLAWLRTC
soluble on expression in E. coli: not soluble

MSLRSPLEPGAPDALLTVIVIVEHLDHKEEVIVQGREIVPSMDGHFDTIQELNSRFTESAPREKIEIGNRERPFKLHVVNVGDSRAMLVTGESYAALTRDHVPDDPGEWRRIEETGDQVVYSDGCARIRGLAMSRSFGDFVAKEVRTPSPITAKPDIRRFYATWNDVLLLYSDGLHVDGEDWRTNFGMAKQCISSVPKISDVAVCLLQQAYGGGSSDNITVLATKFRKFRRQTSAKLRIFGGLAKSFSEEGHHHHHH
soluble on expression in E. coli: not soluble

MSNRFAVILAAGKGTRMKSKLYKVLHPVCGKPMVQHVVDQVSQLGLQKLVTVVGHGAEMVQEQLGNVSEFALQAEQLGTAHAVDQAAGVLANEEGTTLVICGDTPLITAETMEALLQQHKEAGAMATVLTAYIEEPAGYGRIVRNENGHVEKIVEHKDANEKELAIKEINTGTYCFDNKALFASLSKVSNDNVQGEYYLPDVIEILKNEGHIVSAYQTEHFDETLGVNDRVALSQAEIIMKNRINRKNMVNGVTIIDPSNTYISADAIIGSDTVLHPGTIIEGNTVIGSDCEIGPHTVIRDSEIGDRTTIRQSTVHDSKLGTEVSVGPFAHIRPDSVIGDEVRVGNFVEIKKTVFGNRSKASHLSYIGDAQVGEDVNLGCGSITVNYDGKNKFKTVIGNGVFIGCNSNLVAPVTVEDGAYVAAGSTITENVPSKALSVARARQVNKEDYVDQLLNKKKS
soluble on expression in E. coli: not soluble
